Experimental data published in article doi:10.1101/2022.12.09.519754, “Conformational restriction shapes inhibition of a multidrug efflux adaptor protein” (bioRxiv, 2022).
Positions count from the first letter of the chain named.

T1: AcrB in SMALP (styrene maleic acid lipid particle) native nanodiscs (E. coli, UniProt P31224 1-1049)
T1 construct: AcrB, inner membrane transporter of AcrAB-TolC, E. coli; Embedded in native lipid nanodiscs; also called trimeric AcrB SMALPs; source: E. coli C43(DE3) ΔacrAB, pET15b; extracted from membranes with 2.5% SMA 2000, purified (nickel NTA, PD-10 desalting)
T1 sequence: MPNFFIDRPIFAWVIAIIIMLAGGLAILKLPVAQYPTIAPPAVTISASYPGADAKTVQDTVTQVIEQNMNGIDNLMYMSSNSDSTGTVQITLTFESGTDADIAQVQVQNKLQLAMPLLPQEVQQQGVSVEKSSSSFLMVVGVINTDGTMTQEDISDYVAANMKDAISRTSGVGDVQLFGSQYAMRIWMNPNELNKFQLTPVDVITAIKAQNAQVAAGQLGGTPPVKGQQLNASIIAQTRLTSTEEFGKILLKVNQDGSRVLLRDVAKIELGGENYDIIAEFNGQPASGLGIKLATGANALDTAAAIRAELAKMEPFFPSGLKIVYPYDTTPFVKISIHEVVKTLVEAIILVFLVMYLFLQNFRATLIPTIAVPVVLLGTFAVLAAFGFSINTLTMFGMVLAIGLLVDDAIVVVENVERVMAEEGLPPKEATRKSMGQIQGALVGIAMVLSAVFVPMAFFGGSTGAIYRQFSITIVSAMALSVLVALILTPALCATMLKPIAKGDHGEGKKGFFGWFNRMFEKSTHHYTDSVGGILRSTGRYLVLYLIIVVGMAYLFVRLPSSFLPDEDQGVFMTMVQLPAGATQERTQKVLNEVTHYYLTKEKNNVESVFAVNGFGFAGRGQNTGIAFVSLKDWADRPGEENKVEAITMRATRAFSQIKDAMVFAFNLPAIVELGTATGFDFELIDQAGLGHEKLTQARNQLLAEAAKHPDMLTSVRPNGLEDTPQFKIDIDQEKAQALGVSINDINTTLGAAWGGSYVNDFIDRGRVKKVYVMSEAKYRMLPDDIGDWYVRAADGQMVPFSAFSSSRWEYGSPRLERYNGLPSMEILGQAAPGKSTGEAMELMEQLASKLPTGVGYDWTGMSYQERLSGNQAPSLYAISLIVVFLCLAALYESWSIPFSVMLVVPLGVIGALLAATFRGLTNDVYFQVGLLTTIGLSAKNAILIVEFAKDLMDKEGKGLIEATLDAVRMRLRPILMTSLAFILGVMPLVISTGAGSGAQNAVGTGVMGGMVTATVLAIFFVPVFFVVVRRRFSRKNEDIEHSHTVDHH

B1: AcrA^L (lipidated AcrA, expressed from full length AcrA with its signal peptide) (natural protein)
chain: CDDKQAQQGGQQMPAVGVVTVKTEPLQITTELPGRTSAYRIAEVRPQVSGIILKRNFKEGSDIEAGVSLYQIDPATYQATYDSAKGDLAKAQAAANIAQLTVNRYQKLLGTQYISKQEYDQALADAQQANAAVTAAKAAVETARINLAYTKVTSPISGRIGKSNVTEGALVQNGQATALATVQQLDPIYVDVTQSSNDFLRLKQELANGTLKQENGKAKVSLITSDGIKFPQDGTLEFSDVTVDQTTGSITLRAIFPNPDHTLLPGMFVRARLEEGLNPNAILVPQQGVTRTPRGDATVLVVGADDKVETRPIVASQAIGDKWLVTEGLKAGDRVVISGLQKVRPGVQVKAQEVTADNNQQAASGAQPEQSKS
modifications: lipidated (palmitoylation) at Cys25 after cleavage of signal peptide 1-24
notes: AcrA, periplasmic adaptor protein of AcrAB-TolC, E. coli; full length AcrA amplified from genomic DNA; signal peptide residues 1-24 are cleaved and Cys25 is lipidated, so the protein in the assay starts at Cys25; Measured in DDM micelles (0.03 % DDM, 2 x CMC); source: E. coli C43(DE3) ΔacrAB, pET28a; solubilised from membranes with 1% DDM, purified (HiTrap, SEC) in 0.03% DDM
B2: AcrA^S (soluble AcrA lacking signal peptide and lipidation, Cys25Met) (natural protein)
chain: B1 chain with C1M
notes: AcrA, E. coli; lacks signal peptide residues 1-24; Cys25 replaced by a starting methionine (Met25); not lipidated; source: E. coli C43(DE3) ΔacrAB, pET28a; purified from the cytoplasmic fraction (HiTrap, SEC)

Experiments:
[1] = target: the molecule itself; experiment: native MS; AcrA^L in 100 mM ammonium acetate pH 7.4 with 0.03 % DDM
[2] = target: the molecule itself; experiment: native MS; AcrA^L in 100 mM ammonium acetate pH 6.0 with 0.03 % DDM (2 x CMC); sampling cone 120 V, trap collision energy 50-200 V
[3] = target: T1, AcrB in SMALP (styrene maleic acid …); experiment: native gel or EMSA; SMA-PAGE (native PAGE for SMALPs): AcrB in SMALP nanodiscs with AcrA^S or AcrA^SD; Novex Tris-glycine 4-20% gels, 25 mM Tris pH 8.8, 192 mM glycine, 150 V, 90-120 min, 4 °C, Coomassie stain; conditions: both partners purified

| Binder | stoichiometry N [1] | stoichiometry N [2] | stoichiometry N [3] |
| --- | --- | --- | --- |
| B1 | ≤ 5 | 2 | – |
| B2 | – | – | 1 |
